Biological target: T1, cyan fluorescent protein (CFP)-SR-A (class A scavenger receptor) (human, UniProt P21757 1-451)
T1 sequence (looked up): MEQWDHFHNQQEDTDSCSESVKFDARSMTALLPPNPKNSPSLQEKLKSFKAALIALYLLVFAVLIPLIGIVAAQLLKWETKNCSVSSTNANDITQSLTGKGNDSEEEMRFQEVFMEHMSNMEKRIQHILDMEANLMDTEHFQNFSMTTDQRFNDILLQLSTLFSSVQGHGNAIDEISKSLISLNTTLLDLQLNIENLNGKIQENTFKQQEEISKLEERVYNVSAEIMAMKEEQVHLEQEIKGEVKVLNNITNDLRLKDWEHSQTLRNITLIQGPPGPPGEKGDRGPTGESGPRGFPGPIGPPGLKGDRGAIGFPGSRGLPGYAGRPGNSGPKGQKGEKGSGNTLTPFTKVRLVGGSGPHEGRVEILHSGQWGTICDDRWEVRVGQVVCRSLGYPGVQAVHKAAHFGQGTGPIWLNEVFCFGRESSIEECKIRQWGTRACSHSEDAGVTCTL
Test: FRET or BRET

B1: yellow fluorescent protein (YFP)-GRP78 (78 kDa glucose-regulated protein) (natural protein)
chain: not shown
FR (mean FRET ratio): 2.17

— publication PMC4102840 (Journal of Biomedical Research, 2014)
